Laboratory results: patent publication US20240109962A1 (SPARX BIOSCIENCE, published 2024)
Changes are numbered by the printed parent chain. Like-named read-outs stand apart in the source and are kept apart here. Each block holds one binder with its values, some of them ahead of it.

Key:
LILRB3-His = biological target: T1, LILRB3-His; experiment: ELISA on recombinant His-tagged protein, OD450
T1 construct: also called His-tagged LILRB3; recombinant LILRB3 protein

[1] = biological target: T2, human LILRB3 expressed on 293T cells (human, UniProt O75022 24-631); experiment: flow cytometry on 293T transfectants, MFI
T2 construct: whole, on cells
Description: (§1) The cells were then immobilized with glutaraldehyde in the presence of 5% defatted milk at room temperature for 2 hours. An anti-LILRB2 antibody (5 μg/ml) was added to each well and incubated at room temperature for 1 hours. An Alex Flour®-labelled goat anti-mouse secondary antibody (1:2,000 dilution) was then added into each well and incubated at room temperature for 30′. The cells were washed twice with PBS after the staining. Fluorescence intensities (MFI) were measured.

[2] = biological target: LILRB2 antigen of the ELISA of Table 5 (format not specified) (UniProt Q8N423 22-460, limits assumed); experiment: ELISA, antibody titration
[3] = biological target: T3, human LILRB1 expressed on 293T cells (human, UniProt Q8NHL6 24-650); experiment: flow cytometry on 293T transfectants, MFI
T3 construct: whole, on cells
Description: as §1

[4] = biological target: T4, recombinant human LILRB2 protein (human, UniProt Q8N423 22-460, limits assumed); experiment: ELISA, coated recombinant human LILRB2; parameters: unit not given here
T4 construct: also called recombinant LILRB2 protein
Description: This affinity maturation library was screened against human LILRB2 to identify antibodies having high binding affinity to LILRB2. Briefly, an ELISA plate was coated with 0.1 ug/well recombinant human LILRB2 protein. Serial diluted maturated h#2E1 antibodies were incubated in the LILRB2 coated plate for 2 hrs. The plate was washed and a secondary HRP-labeled anti-human IgG was then added to each well. After being incubated at room temperature for 1 hour, the colorimetric ELISA signals were developed by adding the TMB substrate and reaction was stopped by 1M H3PO4. Table 7 below provides binding activities of exemplary matured antibodies to recombinant LILRB2 protein.

[5] = biological target: T5, human LILRB2 expressed on cells (293T-LILRB2, CHO-K1-LILRB2) (human, UniProt Q8N423 22-597); experiment: flow cytometry, 293T-LILRB2 cells
T5 construct: whole, on cells; the cell line is named under assay; also called HEK293T-LILRB2
Excerpt: The fluorescent signals were detected by flow cytometry.

[6] = biological target: T5, human LILRB2 expressed on cells …; experiment: flow cytometry, His-HLA-A2 tetramer (competitor) bound to 293T-LILRB2 cells, relative to no antibody; parameters: concentration or dose not given beside the values
Description: Serial diluted h#2E1 antibodies were then added to the mixture and incubated at room temperature for another 45 minutes. […]

[7] = biological target: T5, human LILRB2 expressed on cells …; experiment: flow cytometry, blockade of His-tagged HLA-G tetramer binding to 293T-LILRB2 cells; fit table under the graph
Description: (§2) Serial diluted humanized LILRB2 antibodies were then added to the mixture and incubated at room temperature for another 45 minutes. The binding of HLA-G/LILRB2 was detected afterwards using a secondary PE-labeled anti-His tag antibody via flow cytometry.

[8] = biological target: T5, human LILRB2 expressed on cells …; experiment: as above; remark: listed apart in the source
Description: as §2

[9] = biological target: T6, His-tagged human LILRB2 polypeptide (human, UniProt Q8N423 22-460); experiment: SPR, antibody on CM5 chip, His-LILRB2 analyte, 1:1 model
T6 construct: SPR analyte; also called His-tagged human LILBR2 polypeptide; not shown: His tag
Description: Surface plasmon resonance (SPR) was used to examine binding activities of exemplary anti-LILBR2 antibodies disclosed herein. Briefly, the anti-LILBR2 antibody was diluted in a coating buffer to a concentration of 30 μg/ml, loaded onto CM5 chips at 10 μl/min to allow coating of the antibody on the surface of the CM5 chip. […] Binding affinity was measured based on the 1:1 binding model.

T3 sequence (Q8NHL6 24-650): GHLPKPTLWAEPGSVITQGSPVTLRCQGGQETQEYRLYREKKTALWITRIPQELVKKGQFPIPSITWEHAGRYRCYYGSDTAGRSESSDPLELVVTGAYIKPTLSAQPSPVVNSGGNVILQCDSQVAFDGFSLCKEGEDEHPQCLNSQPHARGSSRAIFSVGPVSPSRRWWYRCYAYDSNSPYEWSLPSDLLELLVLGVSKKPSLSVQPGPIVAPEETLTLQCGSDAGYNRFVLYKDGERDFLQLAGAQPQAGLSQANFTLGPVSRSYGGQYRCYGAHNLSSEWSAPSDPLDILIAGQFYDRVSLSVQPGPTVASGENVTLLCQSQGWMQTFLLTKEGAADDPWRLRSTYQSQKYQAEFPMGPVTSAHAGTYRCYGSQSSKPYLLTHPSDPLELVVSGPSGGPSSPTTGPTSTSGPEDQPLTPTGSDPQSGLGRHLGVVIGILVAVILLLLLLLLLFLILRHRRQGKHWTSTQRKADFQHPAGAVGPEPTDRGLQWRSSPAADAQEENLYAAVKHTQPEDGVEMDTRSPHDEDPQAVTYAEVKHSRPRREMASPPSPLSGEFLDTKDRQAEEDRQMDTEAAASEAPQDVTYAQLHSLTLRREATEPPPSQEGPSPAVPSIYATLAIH
T5 sequence (Q8N423 22-597): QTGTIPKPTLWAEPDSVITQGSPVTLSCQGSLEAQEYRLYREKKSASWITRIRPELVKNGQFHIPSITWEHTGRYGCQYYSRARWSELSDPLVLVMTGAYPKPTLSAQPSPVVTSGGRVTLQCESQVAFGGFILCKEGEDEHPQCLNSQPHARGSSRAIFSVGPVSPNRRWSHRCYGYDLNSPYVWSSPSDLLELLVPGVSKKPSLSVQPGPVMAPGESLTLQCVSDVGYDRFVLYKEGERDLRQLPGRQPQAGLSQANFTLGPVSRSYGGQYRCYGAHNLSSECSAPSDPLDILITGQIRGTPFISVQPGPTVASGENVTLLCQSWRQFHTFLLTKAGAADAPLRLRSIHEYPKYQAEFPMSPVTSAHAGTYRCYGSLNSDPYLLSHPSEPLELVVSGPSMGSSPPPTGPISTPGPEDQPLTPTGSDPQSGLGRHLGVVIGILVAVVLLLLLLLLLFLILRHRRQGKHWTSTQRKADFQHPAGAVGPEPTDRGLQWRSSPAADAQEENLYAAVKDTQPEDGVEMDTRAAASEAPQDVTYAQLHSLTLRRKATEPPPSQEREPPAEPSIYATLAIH
T4 sequence (Q8N423 22-460 limits assumed): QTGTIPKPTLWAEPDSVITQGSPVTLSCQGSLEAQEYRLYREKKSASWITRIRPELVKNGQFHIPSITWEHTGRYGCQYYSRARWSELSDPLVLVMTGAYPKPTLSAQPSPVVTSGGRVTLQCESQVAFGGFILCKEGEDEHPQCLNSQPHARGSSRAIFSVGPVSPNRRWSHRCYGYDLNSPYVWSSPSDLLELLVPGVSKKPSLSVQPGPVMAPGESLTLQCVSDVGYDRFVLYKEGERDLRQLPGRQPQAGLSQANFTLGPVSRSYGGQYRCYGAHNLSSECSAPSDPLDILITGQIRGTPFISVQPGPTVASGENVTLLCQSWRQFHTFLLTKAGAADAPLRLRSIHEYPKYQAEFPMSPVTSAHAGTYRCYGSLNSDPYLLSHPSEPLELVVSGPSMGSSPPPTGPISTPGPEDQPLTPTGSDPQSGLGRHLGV
LILRB2 antigen of the ELISA of Table 5 (format not specified), sequence (Q8N423 22-460 limits assumed): as above
T6 sequence (Q8N423 22-460 limits assumed): as above

binding result (LILRB3-His): no binding | binding result [1]: no binding (tested: 5 µg/ml) | Kd [2]: 1.39 nM
B1: Antibody 13H5 (antibody, V domains shown)
VH: EIQLQQSGPELVKPGTSVKVSCKASGSSFTDYNMYWVKQSHGKSLDWIGYIDPYNGRTTYNQKFRGKATLTVDKSSSTAFMHLNSLTSEDSAVYYCARGDYFDYWGQGTSLTVSS
VL: EIQMTQTTSSLSASLGDRVTISCSASQGISNYLNWFQQKPDGTVKLLIYYTSTLHSGVPSRFSGSGSGTDFSLTISNLDPEDFATYYCQQYSNLPYTFGGGTKLEIK
notes: Mouse hybridoma mAb purified from ascites

binding result [3]: no binding (tested: 5 µg/ml) | binding result [1]: no binding (tested: 5 µg/ml) | Kd [2]: 2.18 nM
B2: Antibody 2F1 (antibody, V domains shown)
VH: EVKLEESGGGLVQPGGSMKLSCAASGFTFSDAWMDWVRQSPKKGLEWVAEIRSKSNNHTTYYAESVKGRFTISRDDSKSSVYLQMNSLRAEDTGIYYCTRDWLTYWGQGTLVTVSA
VL: DIVLTQSPASLAVSLGQRATISCRASKSVSTSGYSYMNWYQQKPGQPPKLLIYLASNLESGVPARFSGSGSGTDFTLNIHPVEEEDAATYYCQHSRELPLTFGAGTKLELK
notes: as for B1

Bmax [4]: 1.29 | Bmax [5]: 456000 | % no Ab [6]: 52.1% | IC50 [7]: 0.122 nM | Span [7]: 9690 RFU
B3: Antibody 2E1_FC3 (antibody, V domains shown)
VH: EVQLVESGGGLVQPGGSLRLSCAVSGYSITSGYYWNWIRQAPGKGLEWVAYISYDGNTNYNPSLKNRFTISRDTSKNTFYLQMNSLRAEDTAVYYCAREESTMITTAWFAYWGQGTLVTVSS
VL: DIQMTQSPSSLSASVGDRVTITCRASENIYSNLAWYQQKPGKAPKLLIYGATNLASGVPSRFSGSGSGTDYTLTISSLQPEDFATYYCQHFWDTPYTFGQGTKVEIK

Bmax [4]: 1.59 | Bmax [5]: 462000 | % no Ab [6]: 53.3% | IC50 [7]: 0.254 nM | Span [7]: 6670 RFU
B4: Antibody 2E1_FF4 (antibody, V domains shown)
VH: B3 VH with T58N, N59W
VL: B3 VL

Bmax [4]: 1.26 | Bmax [5]: 417000 | % no Ab [6]: 53.6%
B5: Antibody 2E1_FG2 (antibody, V domains shown)
VH: B3 VH
VL: B3 VL with T97V

Bmax [4]: 1.24 | Bmax [5]: 684000 | % no Ab [6]: 47.1%
B6: Antibody 2E1_FH9 (antibody, V domains shown)
VH: B3 VH with T58N, N59L
VL: B3 VL

Bmax [4]: 1.14 | Bmax [5]: 639000 | % no Ab [6]: 46.2%
B7: Antibody 2E1_GF9 (antibody, V domains shown)
VH: B3 VH with Y34S, T58N
VL: B3 VL with N28T, S56A

Bmax [4]: 1.4 | Bmax [5]: 434000 | % no Ab [6]: 55.4%
B8: Antibody 2E1_FG4 (antibody, V domains shown)
VH: B3 VH with T58V
VL: B3 VL with T97I

Bmax [4]: 1.01 | Bmax [5]: 637000 | % no Ab [6]: 50.9%
B9: Antibody 2E1_GB1 (antibody, V domains shown)
VH: B3 VH with Y34S, T58N
VL: B3 VL

Bmax [4]: 1.26 | Bmax [5]: 678000 | % no Ab [6]: 46.6% | IC50 [8]: 0.596 nM | Span [8]: 5760 RFU
B10: Antibody 2E1_GH6 (antibody, V domains shown)
VH: B3 VH with Y34H, T58N
VL: B3 VL

Bmax [4]: 0.989 | Bmax [5]: 420000 | % no Ab [6]: 51.5%
B11: Antibody 2E1_FH2 (antibody, V domains shown)
VH: B3 VH with Y51S, T58N
VL: B3 VL

Bmax [4]: 1.14 | Bmax [5]: 431000 | % no Ab [6]: 49%
B12: Antibody 2E1_FD4 (antibody, V domains shown)
VH: B3 VH with T58P
VL: B3 VL

Bmax [4]: 1.28 | Bmax [5]: 460000 | % no Ab [6]: 51% | IC50 [7]: 0.232 nM | Span [7]: 6750 RFU
B13: Antibody 2E1_FD3 (antibody, V domains shown)
VH: B3 VH with T58A
VL: B3 VL

Bmax [4]: 1.39 | Bmax [5]: 724000 | % no Ab [6]: 52.9%
B14: Antibody 2E1_GD9 (antibody, V domains shown)
VH: B3 VH with T58N
VL: B3 VL with Y30F

Bmax [4]: 1.5 | Bmax [5]: 706000 | % no Ab [6]: 47.9% | IC50 [8]: 0.331 nM | Span [8]: 6980 RFU
B15: Antibody 2E1_GF1 (antibody, V domains shown)
VH: B3 VH with T58N
VL: B3 VL with N28V

Bmax [4]: 1.16 | Bmax [5]: 627000 | % no Ab [6]: 50.1% | IC50 [8]: 0.59 nM | Span [8]: 8170 RFU
B16: Antibody 2E1_GB11 (antibody, V domains shown)
VH: B3 VH with T58N
VL: B3 VL with S56L

Bmax [4]: 1.37 | Bmax [5]: 658000 | % no Ab [6]: 46.2%
B17: Antibody 2E1_GE11 (antibody, V domains shown)
VH: B3 VH with Y34S, T58N
VL: B3 VL with R24G, N53E

Kd [9]: 1.57 nM | koff [9]: 0.000677 s⁻¹ | kon [9]: 432000 M⁻¹ s⁻¹ | binding result [3]: no binding (tested: 5 µg/ml) | binding result [1]: no binding (tested: 5 µg/ml) | Kd [2]: 1.53 nM
B18: Antibody 7G4 (antibody, V domains shown)
VH: QVQLKQSGPGLVQPSQSLSITCTVSGFSLATYGVHWVRQSPGKGLEWLGVMWRDGSTDYNAVFMSRLSITKDDSKSQVFFKMNSLQADDTAIYYCAKNPYLYGSSHYYAMDYWGQGTSVTVSS
VL: DIVMTQSPSSLSVSAGEKVTMSCKSSQSLLNSENQKNYLAWYQQKPGQPPKLLIYGASTRESGVPDRFTGSGSGTDFTLTISSVQAEDLAVYYCQNDHIYPFTFGSGTKLEIK
notes: as for B1

binding result [3]: no binding (tested: 5 µg/ml) | binding result [1]: no binding (tested: 5 µg/ml) | Kd [2]: 0.314 nM
B19: Antibody 13C5 (antibody, V domains shown)
VH: B18 VH with A30T, Y32F, M51I, D54G, V62A, D73N, L101Q
VL: B18 VL with E33G, D76V, Y100L
notes: as for B1
